Reference: patent US20150322152A1 (INSTITUT PASTEUR, published 2015)

Columns and labels:
[1] = target: human FcγRI receptor (immobilized for SPR; form not stated) (human) (UniProt P12314); test: SPR, IgG injected onto immobilized hFcγRI
[2] = target: human FcγRI receptor (immobilized for SPR; form not stated) (human) (UniProt P12314); test: SPR, IgG injected onto immobilized hFcγRI; remark: listed apart in the source
[3] = target: human FcγRI receptor (immobilized for SPR; form not stated) (human) (UniProt P12314); test: SPR on immobilized hFcγRI (summary sentence; the table prints 41)
[4] = target: T1, human FcγRI receptor (immobilized for SPR; form not stated) (human, UniProt P12314 16-288, limits assumed); test: method not stated
T1 construct: also called hFcγRI; immobilized hFcγRI
T1 sequence (P12314 16-288 limits assumed): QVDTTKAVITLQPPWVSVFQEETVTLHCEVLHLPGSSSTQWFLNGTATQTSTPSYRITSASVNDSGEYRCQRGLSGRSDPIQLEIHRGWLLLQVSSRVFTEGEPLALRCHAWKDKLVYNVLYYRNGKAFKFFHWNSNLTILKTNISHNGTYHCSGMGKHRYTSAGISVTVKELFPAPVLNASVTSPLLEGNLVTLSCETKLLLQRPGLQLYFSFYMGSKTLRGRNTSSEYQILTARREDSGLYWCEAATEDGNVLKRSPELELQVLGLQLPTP

Chain of human FcγRI receptor (immobilized for SPR; form not stated) (human) (P12314 16-288 limits assumed): as above

Half life [1] [min] | Kd [1] [µM] | koff [1] [s⁻¹] | kon [1] [M⁻¹ s⁻¹] | Ka [2] [M⁻¹] | Kd [2] [µM] | Kd [3] [µM] | Ka [4] [M⁻¹] | Molecule
3.6 | 0.041 | 0.0014 | 35000 | 2.5e+07 | 0.04 | 0.04 |  | human IgG1 (antibody)
4.52 | 0.038 | 0.0011 | 36000 | 2.5e+07 | 0.04 |  |  | mouse IgG2a (antibody)
 |  |  |  |  |  |  | 1.5e+09 | anti-hFcγRI.1 monoclonal antibody (antibody, mouse IgG2a, V domains shown, Mouse IgG2a; IgG purified by Protein G from hybridoma supernatant; also called anti-hFcγR1.1; hFcγRI.1 mAb) VH: EVQLQESGPGLVQPSQSLSITCTVSGFSLTTYGVHWVRQSPGKGLEWLGMIWSGGSTDYNAAFISRLSISKDNSKSQVFFKMNSLQADDTAIYYCAREWFAYWGQGTSVTVSS VL: ELVMTQSPASLSASVGETVTITCRASENIYSYLAWYQQKQGKSPQLLVYSAKTLAEGVPSRFSGSGSGTQFSLKINSLQPEDFGSYYCQHHYGTPYTFGGGTKMEIK
